This data set deals with T1, His-tagged HMGB1 (UniProt P09429).
T1 sequence: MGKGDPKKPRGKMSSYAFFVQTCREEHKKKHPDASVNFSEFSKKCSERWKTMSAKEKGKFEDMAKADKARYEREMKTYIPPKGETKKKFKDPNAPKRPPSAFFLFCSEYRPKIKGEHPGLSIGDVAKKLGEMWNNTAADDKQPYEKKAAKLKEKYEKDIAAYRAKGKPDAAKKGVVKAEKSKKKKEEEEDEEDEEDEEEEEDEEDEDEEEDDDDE
The data set is described as follows: SPR. Particulars: comparative pool; no signal increase in FIG. 1; unit M inferred.

By Kd is commonly meant the concentration at which binding is half-saturated. Lower therefore signals higher affinity. In turn, “GGGACGCUCACGUACGCUCANNNNNNNNNNNNNNNNNNNNNNNNNNNNNNNNNNNNNNNNUCAGUGCCUGGACGUGCAGU [40N random RNA pool]” displayed a Kd of 1040 nM.

Values taken from patent publication US20120208867.
